Data on 1 molecule can be found in US20080274950A1 (BABRAHAM INSTITUTE, published 2008).

What all share (experiment): adhesion of K562 transfectants to coated N-cadherin Fc
Assay [1] addresses T1, full length chicken N-cadherin with the N-terminus extended by two glycine residues (GG) expressed on K562 … (chicken, UniProt P10288 165-912).
T1 construct: whole, on cells; also called cells expressing the GG N-terminal extension mutant; K562 GG
T1 sequence: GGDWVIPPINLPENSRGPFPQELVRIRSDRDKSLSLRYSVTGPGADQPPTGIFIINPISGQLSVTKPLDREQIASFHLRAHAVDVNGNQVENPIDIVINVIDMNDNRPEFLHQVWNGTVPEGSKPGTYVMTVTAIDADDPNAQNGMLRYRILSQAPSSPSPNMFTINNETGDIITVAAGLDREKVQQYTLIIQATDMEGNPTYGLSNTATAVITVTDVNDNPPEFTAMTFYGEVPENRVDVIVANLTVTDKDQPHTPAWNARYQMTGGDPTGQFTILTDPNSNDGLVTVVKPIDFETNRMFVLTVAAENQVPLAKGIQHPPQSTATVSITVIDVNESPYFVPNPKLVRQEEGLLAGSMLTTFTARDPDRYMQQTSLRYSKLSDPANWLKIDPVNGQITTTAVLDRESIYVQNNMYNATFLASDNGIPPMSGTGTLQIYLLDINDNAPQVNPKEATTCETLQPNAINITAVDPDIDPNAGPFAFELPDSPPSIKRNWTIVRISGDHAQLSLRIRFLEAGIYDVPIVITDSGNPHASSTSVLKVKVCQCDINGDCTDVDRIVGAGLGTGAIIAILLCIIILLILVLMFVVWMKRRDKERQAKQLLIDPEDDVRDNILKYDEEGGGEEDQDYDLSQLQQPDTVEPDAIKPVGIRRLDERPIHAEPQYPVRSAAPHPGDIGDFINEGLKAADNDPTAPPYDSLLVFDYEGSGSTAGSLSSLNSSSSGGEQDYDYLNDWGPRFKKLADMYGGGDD
As for the experimental part: (§1) Adhesion tests were conducted substantially as described in Example 1. Briefly, K562 Cells or L cells transfected with wild type or mutant N-cadherin were allowed to settle for 45 minutes at 37° C. onto N-cadherin Fc fusion proteins coated at 1 μg/ml to a 96 well plate. Non-adherent cells were then washed off and residual adherent cells were quantitated by measuring acid phosphatase activity. Assays were conducted in quadruplicate and results are expressed as % cells adhering +/−SEM.

Assay [2] has as its target T2, full length chicken N-cadherin with the mutation E89A expressed on K562 cells (chicken, UniProt P10288 165-912, E89A).
T2 construct: whole, on cells; also called cells expressing the E89A mutation; K562 E89A
T2 sequence (looked up): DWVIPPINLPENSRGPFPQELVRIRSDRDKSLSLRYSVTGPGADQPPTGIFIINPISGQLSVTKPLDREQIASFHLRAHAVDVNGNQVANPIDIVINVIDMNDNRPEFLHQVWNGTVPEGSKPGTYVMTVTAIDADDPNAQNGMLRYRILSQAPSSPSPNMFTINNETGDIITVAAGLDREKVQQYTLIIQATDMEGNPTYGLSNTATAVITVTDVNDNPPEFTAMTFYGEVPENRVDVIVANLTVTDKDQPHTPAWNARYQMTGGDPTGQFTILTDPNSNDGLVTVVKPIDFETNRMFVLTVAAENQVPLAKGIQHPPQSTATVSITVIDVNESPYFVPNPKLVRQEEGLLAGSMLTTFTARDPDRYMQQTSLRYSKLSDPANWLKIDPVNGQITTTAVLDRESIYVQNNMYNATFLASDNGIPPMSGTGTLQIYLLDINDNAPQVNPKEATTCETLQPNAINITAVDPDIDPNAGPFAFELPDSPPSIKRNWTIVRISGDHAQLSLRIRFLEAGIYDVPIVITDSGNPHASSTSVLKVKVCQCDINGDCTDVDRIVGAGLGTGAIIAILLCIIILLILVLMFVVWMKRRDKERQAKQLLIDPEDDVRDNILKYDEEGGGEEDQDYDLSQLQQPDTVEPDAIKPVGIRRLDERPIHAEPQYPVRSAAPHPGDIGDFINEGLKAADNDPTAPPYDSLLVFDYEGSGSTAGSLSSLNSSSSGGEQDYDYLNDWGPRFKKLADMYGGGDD
On the procedure: as §1

Assay [3] addresses T3, wild type full length chicken N-cadherin expressed on stably transfected K562 cells (chicken, UniProt P10288 165-912).
T3 construct: whole, on cells; also called K562 transfectants (Wt); wild type cells
T3 sequence (looked up): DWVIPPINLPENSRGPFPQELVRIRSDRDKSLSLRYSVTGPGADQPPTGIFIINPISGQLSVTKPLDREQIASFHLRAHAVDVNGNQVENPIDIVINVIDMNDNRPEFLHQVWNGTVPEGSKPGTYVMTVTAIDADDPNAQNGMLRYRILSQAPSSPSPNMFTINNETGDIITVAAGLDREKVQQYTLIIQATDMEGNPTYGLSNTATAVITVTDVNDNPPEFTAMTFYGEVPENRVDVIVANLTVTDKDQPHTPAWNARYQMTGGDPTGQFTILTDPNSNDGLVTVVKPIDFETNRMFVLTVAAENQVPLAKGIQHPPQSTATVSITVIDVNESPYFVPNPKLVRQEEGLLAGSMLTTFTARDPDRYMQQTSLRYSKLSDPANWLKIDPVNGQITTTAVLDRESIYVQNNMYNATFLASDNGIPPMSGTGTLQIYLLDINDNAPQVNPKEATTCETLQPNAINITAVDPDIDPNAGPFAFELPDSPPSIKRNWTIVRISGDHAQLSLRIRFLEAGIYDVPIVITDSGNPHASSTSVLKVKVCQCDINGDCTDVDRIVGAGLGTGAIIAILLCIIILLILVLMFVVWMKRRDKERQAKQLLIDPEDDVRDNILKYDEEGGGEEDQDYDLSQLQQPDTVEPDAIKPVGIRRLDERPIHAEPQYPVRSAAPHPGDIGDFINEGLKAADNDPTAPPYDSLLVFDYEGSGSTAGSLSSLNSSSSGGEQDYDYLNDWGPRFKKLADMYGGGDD
On the procedure:
as §1

B1: chicken N-cadherin-Fc fusion protein with the mutation D134A, dimeric (Fc fusion, UniProt P10288 165-728, looked up)
chain: DWVIPPINLPENSRGPFPQELVRIRSDRDKSLSLRYSVTGPGADQPPTGIFIINPISGQLSVTKPLDREQIASFHLRAHAVDVNGNQVENPIDIVINVIDMNDNRPEFLHQVWNGTVPEGSKPGTYVMTVTAIAADDPNAQNGMLRYRILSQAPSSPSPNMFTINNETGDIITVAAGLDREKVQQYTLIIQATDMEGNPTYGLSNTATAVITVTDVNDNPPEFTAMTFYGEVPENRVDVIVANLTVTDKDQPHTPAWNARYQMTGGDPTGQFTILTDPNSNDGLVTVVKPIDFETNRMFVLTVAAENQVPLAKGIQHPPQSTATVSITVIDVNESPYFVPNPKLVRQEEGLLAGSMLTTFTARDPDRYMQQTSLRYSKLSDPANWLKIDPVNGQITTTAVLDRESIYVQNNMYNATFLASDNGIPPMSGTGTLQIYLLDINDNAPQVNPKEATTCETLQPNAINITAVDPDIDPNAGPFAFELPDSPPSIKRNWTIVRISGDHAQLSLRIRFLEAGIYDVPIVITDSGNPHASSTSVLKVKVCQCDINGDCTDVDRIVGAGLGT
notes: extracellular domain; also called D134A mutant; N-cadherin Fc mutant D134A; not shown: hinge region, CH2 and CH3 domains of human IgG1 heavy chain (vector pIgSig)
On to B1, for which the binding result in assay [1], in assay [2] and in assay [3] was “no binding (tested: Fc fusion protein coated at 1 µg/ml)” each time.
